Laboratory results published in PMC3621905.

Key:
[1] = target: HA-DPP6K (mouse dipeptidyl peptidase-like protein 6, N-terminal variant K, HA-tagged) (mouse); test: co-IP; DPP6 and TASK-3 co-expressed with one of them HA-tagged; membrane fraction solubilised in TNE buffer (50 mM TRIS, 150 mM NaCl, 1 mM EDTA, pH 7.4, 1% Triton X-100), precleared with mouse IgG agarose, incubated 16 h at 4°C with anti-HA agarose (clone HA-7); Western blot with anti-DPP6 or anti-KCNK9; Co-IP ratio = fraction precipitated indirectly when untagged divided by fraction precipitated directly when tagged
[2] = target: HA-mKCNK9 (mouse TASK-3, HA-tagged) (mouse) (UniProt Q3LS21); test: as above
[3] = target: Mouse TASK-3 (mKCNK9), untagged (mouse) (UniProt Q3LS21)

Co-IP ratio (percent of the protein that could be directly precipitated) [1]	Co-IP ratio (percent of the protein that could be directly precipitated) [2]	resting membrane conductance of CHO-K1 cells co-expressing DPP6 with TASK-3, against TASK-3 alone (voltage clamp) [3]	Substance
31.4%	–	–	Mouse TASK-3 (mKCNK9), untagged (from UniProt Q3LS21 1-402) (natural protein)
–	31.4%	2.3 fold	DPP6K (mouse dipeptidyl peptidase-like protein 6, N-terminal variant K), untagged (natural protein)
